# Measured values from IntAct's records for PubMed 22466964.
# B1: Cullin-2 (Homo sapiens), Q13617 (parent)
# chain: MSLKPRVVDFDETWNKLLTTIKAVVMLEYVERATWNDRFSDIYALCVAYPEPLGERLYTETKIFLENHVRHLHKRVLESEEQVLVMYHRYWEEYSKGADYMDCLYRYLNTQFIKKNKLTEADLQYGYGGVDMNEPLMEIGELALDMWRKLMVEPLQAILIRMLLREIKNDRGGEDPNQKVIHGVINSFVHVEQYKKKFPLKFYQEIFESPFLTETGEYYKQEASNLLQESNCSQYMEKVLGRLKDEEIRCRKYLHPSSYTKVIHECQQRMVADHLQFLHAECHNIIRQEKKNDMANMYVLLRAVSTGLPHMIQELQNHIHDEGLRATSNLTQENMPTLFVESVLEVHGKFVQLINTVLNGDQHFMSALDKALTSVVNYREPKSVCKAPELLAKYCDNLLKKSAKGMTENEVEDRLTSFITVFKYIDDKDVFQKFYARMLAKRLIHGLSMSMDSEEAMINKLKQACGYEFTSKLHRMYTDMSVSADLNNKFNNFIKNQDTVIDLGISFQIYVLQAGAWPLTQAPSSTFAIPQELEKSVQMFELFYSQHFSGRKLTWLHYLCTGEVKMNYLGKPYVAMVTTYQMAVLLAFNNSETVSYKELQDSTQMNEKELTKTIKSLLDVKMINHDSEKEDIDAESSFSLNMNFSSKRTKFKITTSMQKDTPQEMEQTRSAVDEDRKMYLQAAIVRIMKARKVLRHNALIQEVISQSRARFNPSISMIKKCIEVLIDKQYIERSQASADEYSYVA
# partner: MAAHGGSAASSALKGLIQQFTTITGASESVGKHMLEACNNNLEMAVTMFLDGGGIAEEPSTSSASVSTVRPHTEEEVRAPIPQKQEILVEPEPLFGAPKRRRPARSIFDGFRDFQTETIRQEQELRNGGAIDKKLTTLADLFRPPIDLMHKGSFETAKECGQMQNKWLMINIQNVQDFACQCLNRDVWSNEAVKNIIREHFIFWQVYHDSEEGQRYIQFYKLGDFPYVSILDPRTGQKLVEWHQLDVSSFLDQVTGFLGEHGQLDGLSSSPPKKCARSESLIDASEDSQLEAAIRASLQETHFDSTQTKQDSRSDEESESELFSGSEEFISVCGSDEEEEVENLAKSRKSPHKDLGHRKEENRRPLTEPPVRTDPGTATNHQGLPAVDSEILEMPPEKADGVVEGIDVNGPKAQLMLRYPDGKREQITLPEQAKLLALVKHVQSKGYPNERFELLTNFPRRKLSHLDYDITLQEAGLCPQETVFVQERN
# B2: UBX domain-containing protein 5 (Saccharomyces cerevisiae), Q06682 (parent)
# chain: MSEGKVDEFMAITGADDAAIATQFIEMADGNLNTAISLFFENGGAALLSSNNTPTPSNSTPMAPTSVDSDADAQLAERLQREAYQQQQPDQDYVRPPDEARHEVLTETSGFPISYGGIGGRFEPLHRVNDMFDEGRPESIFNQRLDDTNTNTYINDNSSDSLDSEEENDDDEYEYVEEPVIELDEDGNIKEYTKLVRKPKTISKEQKLALLFRPPFSIMSKLDLDAAKQKARAKQKWIMINIQDSGIFQCQALNRDLWSSRPVKTIIKENFVFLQYQYESRNAQPYLQFYHLNNKDDLPHIAILDPITGERVKQWNRVVPIPEQFISEINEFLASFSLDPKVPNPTVNEPLPKVDPTTLTEEQQMELAIKESLNNNSSKSNQEEVPSTGEEQKRVQEPDPFSTIEARVHPEPPNKPGITTRIQIRTGDGSRLVRRFNALEDTVRTIYEVIKTEMDGFADSRFTLNDHQREDLIDKLNMTIADAGLKNSSLLLEKLDPEIE
# partner: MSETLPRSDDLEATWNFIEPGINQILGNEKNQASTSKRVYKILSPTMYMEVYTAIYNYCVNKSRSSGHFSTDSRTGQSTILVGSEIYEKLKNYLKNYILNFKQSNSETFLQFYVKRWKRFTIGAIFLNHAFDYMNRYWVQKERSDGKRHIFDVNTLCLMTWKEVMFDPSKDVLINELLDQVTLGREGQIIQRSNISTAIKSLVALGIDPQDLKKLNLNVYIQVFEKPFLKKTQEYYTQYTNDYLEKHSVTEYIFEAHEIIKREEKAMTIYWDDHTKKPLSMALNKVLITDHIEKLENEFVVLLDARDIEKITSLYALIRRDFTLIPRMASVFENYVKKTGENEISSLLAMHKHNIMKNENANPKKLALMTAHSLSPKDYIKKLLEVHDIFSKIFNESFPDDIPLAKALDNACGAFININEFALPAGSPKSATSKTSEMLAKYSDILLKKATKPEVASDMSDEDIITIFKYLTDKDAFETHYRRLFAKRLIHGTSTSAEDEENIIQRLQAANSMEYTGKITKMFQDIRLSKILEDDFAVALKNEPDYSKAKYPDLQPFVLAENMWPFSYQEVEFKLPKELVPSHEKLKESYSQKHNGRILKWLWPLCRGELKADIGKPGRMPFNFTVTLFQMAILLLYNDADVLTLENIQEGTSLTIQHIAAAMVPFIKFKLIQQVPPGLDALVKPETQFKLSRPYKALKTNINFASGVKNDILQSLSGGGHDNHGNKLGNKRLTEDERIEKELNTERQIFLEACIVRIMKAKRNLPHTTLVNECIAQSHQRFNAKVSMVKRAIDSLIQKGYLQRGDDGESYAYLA
# B3: UBX domain-containing protein 7 (Homo sapiens), O94888 (parent)
# chain: B1 partner
# Variants of: B1
# Settings: with ubxn7_human UBXN7, O94888
row,Variant,effect of a mutation on the interaction
1,K689R,disrupting interaction strength

# Variants of: B2
# Settings: with cdc53_yeast CDC53, Q12018
row,Variant,effect of a mutation on the interaction
1,A368Q,disrupting interaction strength
2,E361R;M365E;A368Q,disrupting interaction strength

# Variants of: B3
# Settings: with cul2_human CUL2, Q13617
row,Variant,effect of a mutation on the interaction
1,A293Q,disrupting interaction strength
2,E286R;L290E;A293Q,disrupting interaction strength
